Measured values from US6376217.

Target: T1, human CD5 cell differentiation marker (human, UniProt P06127 25-495)
T1 sequence: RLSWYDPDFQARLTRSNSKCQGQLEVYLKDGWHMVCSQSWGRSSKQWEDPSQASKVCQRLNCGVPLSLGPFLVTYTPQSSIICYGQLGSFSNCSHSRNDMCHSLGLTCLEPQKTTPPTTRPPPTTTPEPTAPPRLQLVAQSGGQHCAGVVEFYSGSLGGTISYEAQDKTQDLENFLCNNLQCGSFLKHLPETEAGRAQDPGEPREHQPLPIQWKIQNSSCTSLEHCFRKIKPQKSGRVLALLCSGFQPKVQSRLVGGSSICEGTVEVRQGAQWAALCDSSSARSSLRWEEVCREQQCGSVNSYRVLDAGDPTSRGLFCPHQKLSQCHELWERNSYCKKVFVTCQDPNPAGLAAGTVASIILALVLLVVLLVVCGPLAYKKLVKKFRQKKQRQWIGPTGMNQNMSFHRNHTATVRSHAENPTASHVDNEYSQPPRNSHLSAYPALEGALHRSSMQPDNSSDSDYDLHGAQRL
Test: cell-based or functional assay

B1: he3Fab-rGelA50(C44) (other)
heavy: EIQLVQSGGGLVKPGGSVRISCAASGYTFTNYGMNWVRQAPGKGLEWMGWINTHTGEPTYADSFKGRFTFSLDDSKNTAYLQINSLRAEDTAVYFCTRRGYDWYFDVWGQGTTVTVSS
light: DIQMTQSPSSLSASVGDRVTITCRASQDINSYLSWFQQKPGKAPKTLIYRANRLESGVPSRFSGSGSGTDYTLTISSLQYEDFGIYYCQQYDESPWTFGGGTKLEIK
chain: GLDTVSFSTKGATYITYVNFLNELRVKLKPEGNSHGIPLLRKKCDDPGKAFVLVALSNDNGQLAEIAIDVTSVYVVGYQVRNRSYFFKDAPDAAYEGLFKNTIKTRLHFGGSYPSLEGEKAYRETTDLGIEPLRIGIKKLDENAIDNYKPTEIASSLLVVIQMVSEAARFTFIENQIRNNFQQRIRPANNTISLENKWGKLSFQIRTSGANGMFSEAVELERANGKKYYVTAVDQVKPKIALLKFVDKDPK
- IC50 (pMT), whole cell cytotoxicity, CEM Cells: 173 pMT
